Residue numbers refer to the chain shown, from its start. One block for each binder: values may come before it.
Experiments:
[1] = target: T1, pan IgC segment of human PD-L1, expressed on MC38 / CHO-K1 cells (human, UniProt Q9NZQ7 132-238); assay: flow cytometry on cells expressing pan IgC
T1 construct: also called PD-L1-pan-IgC; hPD-L1 pan-IgC segment
Procedure: (§1) MC38/CHO-K1 cells expressing either PD-L1 or pan IgC were used as positive detection cells. MC38/CHO-K1 wild type cells and PD-L2-expressed MC38/CHO-K1 cells were used as negative control. About 1×10⁵ negative and positive cells were stained with either sera from immunized mice (1:100, 1:1000, 1:10000 dilutions) or culture supernatant (50 μl) from hybridoma, or mouse monoclonal antibody (concentrations as indicated in the figures), or other humanized antibodies (concentrations as indicated in the figures), and incubated at 4° C. for 15 min. After washed with PBS, the cells were stained with a PE conjugated goat anti mouse IgG (BD biosciences) and incubated in dark place at 4° C. for 15 min. After washed with PBS, the stained cells were analyzed by a flow cytometry (NovoCyte, Acebio, Hangzhou).
(§2) MC38 cells expressing either hPD-L1 or pan-IgC were used as positive detection cells, whereas, both hPD-L2 expressed and parental MC38 cells were used as negative detection cells.
(§3) 50 μl/well of hybridoma culture supernatant or 100 ng/well mouse monoclonal antibody were mixed with 1×10 5 of either positive or negative detection cells at 4° C. for 15 min. After washed with PBS, the cells were stained with a PE conjugated goat anti mouse antibody (BD biosciences) at 4° C. for 15 min in dark place.

[2] = target: T2, recombinant PD-L1-3-HIS (secretory splice variant PD-L1-3 with HIS tag, from HEK293 cells) (human, UniProt Q9NZQ7 19-178); assay: direct ELISA, 50 ng/well rPD-L1-3-HIS coated
T2 construct: The range 19-178 comes from the background paragraph; also called rPD-L1-3-HIS; sPD-L1-3-HIS; not shown: HIS tag

[3] = target: T3, human PD-L1 (membrane-bound type), expressed on MC38 / CHO-K1 cells (human, UniProt Q9NZQ7 19-290); assay: flow cytometry on MC38 cells expressing hPD-L1
T3 construct: Full-length gene transfected into MC38 and CHO-K1 cells; also called hPD-L1
Procedure: as §1, §2, §3

[4] = target: T4, native form of secretory sPD-L1-3, in culture supernatant of transfected MC38 cells (human, UniProt Q9NZQ7 19-178); assay: indirect (sandwich) ELISA: antibody coated, MC38 culture supernatant with sPD-L1-3
T4 construct: Untagged, secreted by MC38 cells; also called sPD-L1-3/12

[5] = target: T5, human PD-L2 (membrane-bound type), expressed on CHO-K1 cells (human, UniProt Q9BQ51 20-273); assay: flow cytometry on cells with membrane-bound human PD-L2
T5 construct: whole, on cells; also called hPD-L2
T5 sequence (looked up): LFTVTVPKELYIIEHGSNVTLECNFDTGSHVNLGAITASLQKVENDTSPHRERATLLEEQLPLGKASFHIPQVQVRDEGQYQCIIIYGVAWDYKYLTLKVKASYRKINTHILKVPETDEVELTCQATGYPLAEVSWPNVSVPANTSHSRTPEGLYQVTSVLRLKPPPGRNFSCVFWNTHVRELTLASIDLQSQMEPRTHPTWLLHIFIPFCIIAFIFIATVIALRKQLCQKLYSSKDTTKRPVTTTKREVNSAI

[6] = target: T1, pan IgC segment of human PD-L1, …; assay: flow cytometry on cells with pan-IgC
[7] = target: T6, human CD80 (membrane-bound type), on cells (human, UniProt P33681 35-288); assay: flow cytometry on cells with membrane-bound human CD80
T6 construct: whole, on cells
T6 sequence (looked up): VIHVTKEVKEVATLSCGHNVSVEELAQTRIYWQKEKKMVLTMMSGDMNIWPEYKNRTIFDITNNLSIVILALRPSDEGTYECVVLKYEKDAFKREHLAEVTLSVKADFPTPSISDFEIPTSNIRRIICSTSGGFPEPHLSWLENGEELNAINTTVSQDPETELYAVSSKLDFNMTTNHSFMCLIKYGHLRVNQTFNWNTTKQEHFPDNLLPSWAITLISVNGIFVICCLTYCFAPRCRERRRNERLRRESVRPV
Source text: FIG. 10. […] C. CHO-K1 parental cells were used as a negative control. Clone #2D10: human CD80 mouse monoclonal antibody (Elabscience, Wuhan). 2nd antibody: PE labeled goat anti-mouse antibody (BD Biosciences)
as §1

[8] = target: T4, native form of secretory sPD-L1-3, in …; assay: ELISA with MC38 culture supernatant containing native sPD-L1-3
[9] = target: T3, human PD-L1 (membrane-bound type), …; assay: flow cytometry on cells with membrane-bound PD-L1
[10] = target: T5, human PD-L2 (membrane-bound type), …; assay: flow cytometry on cells with membrane-bound human PD-L2; the antibody also bound the CHO-K1 parental cells

T1 sequence (Q9NZQ7 132-238): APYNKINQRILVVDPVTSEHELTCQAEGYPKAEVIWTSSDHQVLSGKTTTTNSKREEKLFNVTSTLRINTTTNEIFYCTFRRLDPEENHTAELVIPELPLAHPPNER
T4 sequence (Q9NZQ7 19-178): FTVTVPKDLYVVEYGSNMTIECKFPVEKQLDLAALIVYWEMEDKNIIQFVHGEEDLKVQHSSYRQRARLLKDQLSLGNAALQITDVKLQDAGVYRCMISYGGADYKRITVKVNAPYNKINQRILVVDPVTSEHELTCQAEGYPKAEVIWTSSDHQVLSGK
T3 sequence (Q9NZQ7 19-290): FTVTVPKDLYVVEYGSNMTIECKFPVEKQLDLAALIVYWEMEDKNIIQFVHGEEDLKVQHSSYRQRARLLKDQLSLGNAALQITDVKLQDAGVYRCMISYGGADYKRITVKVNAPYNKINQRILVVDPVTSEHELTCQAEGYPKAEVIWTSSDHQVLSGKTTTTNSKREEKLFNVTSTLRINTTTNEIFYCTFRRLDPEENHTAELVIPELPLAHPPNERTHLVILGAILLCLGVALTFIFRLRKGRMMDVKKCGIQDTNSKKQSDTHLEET
T2 sequence (Q9NZQ7 19-178, change not shown): as the sequence (Q9NZQ7 19-178) above

B1: PD-L1 mouse monoclonal antibody #19 (antibody, mouse IgG2b, V domains shown)
VH: EVQLQQSGPELVKPGASVKISCKASGSAFSSSWMNWLKQRPGQGLEWIGRIYPGDGDTNYNGKFKGKATLTADKSSSTAYMQLSSLTSVDSAVYFCARRRANHYGSNWYFDVWGAGTTVTVSS
VL: NIVLTQSPASLAVSLGQRATISCRASESVDSYGKSFMHWYQQKPGQPPKLLIYLASNLESGVPARFSGSGSRTDFTLTIDPVEADDAATYYCQQNNEDPYTFGGGTKLEIK
notes: also called mAb #19; Ab #19
- binding result [1]: binds
- binding result [2]: no binding (tested: 100 ng/100 µl/well)
- binding result [3]: binds
- binding result [4]: no binding (tested: 0.2 µg/well coated antibody)

B2: humanized PD-L1 antibody H6L5 (VH6 + VL5) (antibody, V domains shown)
VH: B1 VH with P9A, L11V, V12K, A16S, I20V, K67R, A68V, T87R, V89E, S91T
VL: NIVLTQSPASLSASVGDRVTISCRASESVDSYGKSFMHWYQQKPGQPPKLLIYLASNLESGVPARFSGSGSRTDFTLTIDSLQPEDFATYYCQQNNEDPYTFGGGTKLEIK
- binding result [5]: no binding
- binding result [6]: binds
- binding result [7]: no binding

B3: humanized PD-L1 antibody H4L4 (VH4 + VL4) (antibody, V domains shown)
VH: EVQLVQSGAEVKKPGSSVKVSCKASGSAFSSSWMNWLRQRPGQGLEWIGRIYPGDGDTNYNGKFKGRVTLTADKSSSTAYMELSSLRSVDTAVYFCARRRANHYGSNWYFDVWGAGTTVTVSS
VL: B2 VL with D80S
- binding result [6]: binds

The remaining lines, values ahead:

- binding result [5]: no binding
- binding result [7]: no binding
- binding result [8]: no binding
- EC50 [9]: 0.62 µg/mL
B4: humanized PD-L1 antibody H6L2 (humanized mouse monoclonal antibody #19, VH6 + VL2) (antibody, V domains shown)
VH: B3 VH with V5Q, R38K, E82Q, V89E
VL: B2 VL with A9S, S22T, A64S, D80S
notes: also called humanized antibody H6L2; humanized antibody #19

- binding result [10]: binds
B5: humanized PD-L1 antibody H5L4 (VH5 + VL4) (antibody, V domains shown)
VH: B3 VH with S16A, S76I, S85R
VL: B2 VL with D80S
